Molecular target: T1, 2CARD domain of human RIG-I, residues 1-200, recombinant (human, UniProt O95786 1-200)
T1 sequence (looked up): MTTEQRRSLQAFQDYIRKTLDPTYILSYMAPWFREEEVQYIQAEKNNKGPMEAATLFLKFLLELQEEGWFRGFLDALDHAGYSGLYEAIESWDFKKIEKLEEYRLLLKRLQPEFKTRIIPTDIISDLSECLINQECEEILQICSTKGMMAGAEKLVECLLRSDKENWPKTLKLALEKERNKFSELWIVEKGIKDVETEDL
Test: NMR titration

B1: PRYSPRY domain (PSpry) of human TRIM25, residues 433-630, recombinant (domain or fragment, UniProt Q14258 433-630, looked up)
chain: STSLKAKVLETFLAKSRPELLEYYIKVILDYNTAHNKVALSECYTVASVAEMPQNYRPHPQRFTYCSQVLGLHCYKKGIHYWEVELQKNNFCGVGICYGSMNRQGPESRLGRNSASWCVEWFNTKISAWHNNVEKTLPSTKATRVGVLLNCDHGFVIFFAVADKVHLMYKFRVDFTEALYPAFWVFSAGATLSICSPK
B1: binds.
